# Test results: patent US20100256040A1 (priority 2001, published 2010)
# Target: T1, interaction between GST-p6 and myc-Tsg101(1-207) (Homo sapiens, UniProt Q99816)
# T1 construct: myc-tagged Tsg101 (residues 1-207); made in house; host or cells: Drosophila S2 cells, with Tsg101 used as crude cell lysate
# T1 sequence (Q99816 1-207): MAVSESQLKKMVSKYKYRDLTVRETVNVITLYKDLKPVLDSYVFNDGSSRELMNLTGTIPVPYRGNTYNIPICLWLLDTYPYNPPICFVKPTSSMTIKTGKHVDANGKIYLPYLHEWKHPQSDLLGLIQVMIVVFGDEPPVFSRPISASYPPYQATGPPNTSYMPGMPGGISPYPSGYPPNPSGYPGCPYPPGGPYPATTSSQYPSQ
# Experiment: Competitive inhibition of GST-p6 : myc-Tsg101(1-207) binding on plates (fluorescence detection)
# Settings: competitive inhibition curve, FIG. 1
# Procedure: A fusion protein with a GST tag fused to the HIV-1 GAGp6 domain was recombinantly expressed and purified by chromatography. In addition, a GAGp6 peptide containing the first 14 amino acid residues (“p6(1-14)”) was synthesized chemically by standard peptide synthesis methods. The peptide was purified by conventional protein purification techniques, e.g., by chromatography.
# Nunc/Nalgene Maxisorp plates were incubated overnight at 4° C. or for 1-2 hrs at room temperature in 100 μl of a protein coupling solution containing purified GST-p6 and 50 mM Carbonate, pH=9.6. This allowed the attachment of the GST-p6 fusion protein to the plates. Liquids in the plates were then emptied and wells filled with 400 μl/well of a blocking buffer (SuperBlock; Pierce-Endogen, Rockford, Ill.). […]
# Plates were then washed 4×100 μl with 1×PBST solution (Invitrogen; Carlsbad, Calif.). […] Plates were then read on a Packard Fusion instrument at an excitation wavelength of 325 nm and an emission wavelength of 420 nm. […]
# Different concentrations of the p6(1-14) peptide were tested, and the relative intensities of the fluorescence signals obtained at different concentrations were plotted against the peptide concentrations. […]
substance,measurement,value
p6(1-14): chemically synthesized GAGp6 peptide containing the first 14 amino acid residues (LQSRPEPTAPPEES),inhibition of protein-protein interaction between GST-p6 and myc-Tsg101(1-207),capable of inhibiting protein-protein interaction
